Results published in the FLAb antibody collection.

B1: unnamed (protein)
chain 1: QVQLQQPGAELVRPGASVKLSCKASGYTFTSYWINWVKQRPGQGLEWIGNIYPSDSYTNYNQKFKDKATLTVDKSSSTAYMQLSSPTSEDSAVYYCTRSWRGNSFDYWGQGTTLTVSS
chain 2: DIVMTQSPSSLTVTAGEKVTMSCKSSQSLLNSGNQKNYLTWYQQKPGQPPKLLIYWASTRESGVPDRFTGSGSGTDFTLTISSVQAEDLAVYYCQNDYSYPFTFGSGTKLEIK
B2: unnamed (protein)
chain 1: EVQLVESGGGLVQPGGSLRLSCAASGFTFNTYAMYWIRQAPGKGLEWVARIRSKSNNYAIYYADSVKDRFTISRDDSKNSLYLQMNSLKTEDTAVYYCARPYSDSFAYWGQGTLVTVSS
chain 2: DVVMTQSPLSLPVTPGEPASISCRSSQSLVHSTGNTYLHWYLQKPGQSPQLLIYKVSNRFSGVPDRFSGSGSGTDFTLKISRVEAEDVGVYYCSQSTHVPFTFGGGTKVEIK
B3: unnamed (protein)
chain 1: QVQLQESGPGLVKPSETLSLTCTVSGFSLTNYGIHWIRQPPGKGLEWLGVIWARGFTNYNSALMSRLTISKDNSKNQVSLKLSSVTAADTAVYYCARANDGVYYAMDYWGQGTLVTVSS
chain 2: DFVMTQSPAFLSVTPGEKVTITCSAQSSVNYIHWYQQKPDQAPKKLIYDTSKLASGVPSRFSGSGSGTDYTFTISSLEAEDAATYYCQQWTTNPLTFGQGTKVEIK
B4: unnamed (protein)
chain 1: QVQLVQSGAEVKKPGASVKVSCKGSGYTFTSYWMHWVRQAPGQRLEWIGEIDPSESNTNYNQKFKGRVTLTVDISASTAYMELSSLRSEDTAVYYCARGGYDGWDYAIDYWGQGTLVTVSS
chain 2: DVVMTQSPLSLPVTPGEPASISCRSSQSLAKSYGNTYLSWYLQKPGQSPQLLIYGISNRFSGVPDRFSGSGSGTDFTLKISRVEAEDVGVYYCLQGTHQPYTFGQGTKVEIK
B5: unnamed (protein)
chain 1: EVQLVQSGAEVKKPGASVKVSCKASGYTFTSYVIHWVRQRPGQGLAWMGYINPYNDGTKYNERFKGKVTITSDRSTSTVYMELSSLRSEDTAVYLCGREGIRYYGLLGDYWGQGTLVTVSS
chain 2: DIQMTQSPSSLSASVGDRVTITCGTSEDIINYLNWYQQKPGKAPKLLIYHTSRLQSGVPSRFSGSGSGTDFTLTISSLQPEDFATYYCQQGYTLPYTFGQGTKVEIK
B6: unnamed (protein)
chain 1: EVQLVQSGAEVKKPGESLRISCKGSGYSFSTYWISWVRQMPGKGLEWMGKIYPGDSYTNYSPSFQGQVTISADKSISTAYLQWSSLKASDTAMYYCARGYGIFDYWGQGTLVTVSS
chain 2: SYELTQPPSVSVSPGQTASITCSGDNIGDQYAHWYQQKPGQSPVLVIYQDKNRPSGIPERFSGSNSGNTATLTISGTQAMDEADYYCATYTGFGSLAVFGGGTKLTVL
B7: unnamed (protein)
chain 1: QVQLQQSGAEVKKPGSSVKVSCKASGYTFTSYNMHWVKQAPGQGLEWIGAIYPGMGDTSYNQKFKGKATLTADESTNTAYMELSSLRSEDTAFYYCARSTYYGGDWYFDVWGQGTTVTVSS
chain 2: DIQLTQSPSSLSASVGDRVTMTCRASSSVSYIHWFQQKPGKAPKPWIYATSNLASGVPVRFSGSGSGTDYTFTISSLQPEDIATYYCQQWTSNPPTFGGGTKLEIK
B8: unnamed (protein)
chain 1: ELQLQESGPGLVKPSETLSLTCTVSGGSISSGSYYWDWIRQPPGKGLEWIGNIYKSGSTYYNPSLKSRVTISVDTSKNQFSLKLSSVTAADTAVYYCARERGMHYMDVWGKGTTVTVSS
chain 2: DIQMTQSPSSLSASVGDRVTITCRASQSINSYLNWYQQKPGKAPKLLIYAASSLQSGVPSRFSGSGSGTDFTLTISSLQPEDFATYYCQQQFDPPFTFGGGTKVEIK
B9: unnamed (protein)
chain 1: QVQLQQSGAELVRPGSSVKISCKASGYAFSSYWMNWVKQRPGQGLEWIGQIWPGDGDTNYNGKFKGKATLTADESSSTAYMQLSSLASEDSAVYFCARRETTTVGRYYYAMDYWGQGTTVTVSS
chain 2: DIQLTQSPASLAVSLGQRATISCKASQSVDYDGDSYLNWYQQIPGQPPKLLIYDASNLVSGIPPRFSGSGSGTDFTLNIHPVEKVDAATYHCQQSTEDPWTFGGGTKLEIK
B10: unnamed (protein)
chain 1: QVELVESGGGLVQPGGSLRLSCAASGFTFTSYWMSWVRQAPGKGLELVSSITSYGSFTYYADSVKGRFTISRDNSKNTLYLQMNSLRAEDTAVYYCARNMYTHFDSWGQGTLVTVSS
chain 2: DIVLTQPPSVSGAPGQRVTISCSGSSSNIGSNSVSWYQQLPGTAPKLLIYDNSKRPSGVPDRFSGSKSGTSASLAITGLQSEDEADYYCQSRDTYGYYWVFGGGTKLTVL
B11: unnamed (protein)
chain 1: QVQLVESGGGVVQPGRSLRLSCAASGFTFSSYGMHWVRQAPGKGLEWVAVIWYDGSNEYYADSVKGRFTISRDNSKNTLYLQMNSLRAEDTAVYYCARDRGYTSSWYPDAFDIWGQGTMVTVSS
chain 2: QSVLTQPPSVSGAPGQRVTISCTGSSSNTGAGYDVHWYQQVPGTAPKLLIYGSGNRPSGVPDRFSGSKSGTSASLAITGLQAEDEADYYCQSYDSSLSGWVFGGGTRLTVL
B12: unnamed (protein)
chain 1: QVQLVQSGAEVKKPGASVKVSCKASGYTFTSYYMHWVRQAPGQGLEWMGEISPFGGRTNYNEKFKSRVTMTRDTSTSTVYMELSSLRSEDTAVYYCARERPLYASDLWGQGTTVTVSS
chain 2: DIQMTQSPSSLSASVGDRVTITCRASQGISSALAWYQQKPGKAPKLLIYSASYRYTGVPSRFSGSGSGTDFTFTISSLQPEDIATYYCQQRYSLWRTFGQGTKLEIK
B13: unnamed (protein)
chain 1: QLQLQESGPGLLKPSETLSLTCTVSGGSISSPGYYGGWIRQPPGKGLEWIGSIYKSGSTYHNPSLKSRVTISVDTSKNQFSLKLSSVTAADTAVYYCTRPVVRYFGWFDPWGQGTLVTVSS
chain 2: AIQLTQSPSSLSASVGDRVTITCRASQGISSALAWYQQKPGKAPKLLIYDASNLESGVPSRFSGSGSGTDFTLTISSLQPEDFATYYCQQFNSYPTFGQGTKVEIK
B14: unnamed (protein)
chain 1: EVQLQQSGPELVKPGASVKMSCKASGYTFTSYVVHWVKQNPGQGLEWIGYINPFNDGTKYNENFKGKATLTSDRSSSTAYMELSSLTSEESAVYFCARDMGREGFAYWGQGTLVTVSA
chain 2: DIVMTQAAFSNPVTLGTSASISCRSSKSLLHSNGITYLYWYLQKPGQSPQLLIYQMSNLASGVPDRFSSSGSGTDFTLRISRVEAEDVGVYYCAQNLELPRTFGGGTKLEI
B15: unnamed (protein)
chain 1: QVQLVESGGGVVQPGRSLRLSCAASGFTFSSYDMHWVRQAPGKGLEWVAVIWYDGSNKYYADSVKGRFTISRDNSKNTLYLQMNSLRAEDTAVYYCARGSGNWGFFDYWGQGTLVTVSS
chain 2: DIQMTQSPSSLSASVGDRVTITCRASQGISRWLAWYQQKPEKAPKSLIYAASSLQSGVPSRFSGSGSGTDFTLTISSLQPEDFATYYCQQYNTYPRTFGQGTKVEIK
B16: unnamed (protein)
chain 1: QVQLVESGGGVVQPGRSLRLSCAASGFTFSTYGMHWVRQAPGKGLEWVAVIWDDGSYKYYGDSVKGRFTISRDNSKNTLYLQMNSLRAEDTAVYYCARDGITMVRGVMKDYFDYWGQGTLVTVSS
chain 2: AIQLTQSPSSLSASVGDRVTITCRASQDISSALVWYQQKPGKAPKLLIYDASSLESGVPSRFSGSESGTDFTLTISSLQPEDFATYYCQQFNSYPLTFGGGTKVEIK
B17: unnamed (protein)
chain 1: EVQLVESGGGLVQPGGSLRLSCAASGYTFTNYGMNWVRQAPGKGLEWVGWINTYTGEPTYAADFKRRFTFSLDTSKSTAYLQMNSLRAEDTAVYYCAKYPHYYGSSHWYFDVWGQGTLVTVSS
chain 2: DIQMTQSPSSLSASVGDRVTITCSASQDISNYLNWYQQKPGKAPKVLIYFTSSLHSGVPSRFSGSGSGTDFTLTISSLQPEDFATYYCQQYSTVPWTFGQGTKVEIK
B18: unnamed (protein)
chain 1: EVQLQQSGAELVKPGASVKLSCTASGFNIKDTYVHWVKQRPEQGLEWIGRIDPANGYTKYDPKFQGKATITADTSSNTAYLQLSSLTSEDTAVYYCVRPLYDYYAMDYWGQGTSVTVSS
chain 2: DILMTQSPSSMSVSLGDTVSITCHASQGISSNIGWLQQKPGKSFMGLIYYGTNLVDGVPSRFSGSGSGADYSLTISSLDSEDFADYYCVQYAQLPYTFGGGTKLEIK
B19: unnamed (protein)
chain 1: EVQLVESGGGLVQPGGSLRLSCAASGFTFSDYNMAWVRQAPGKGLEWVATITYEGRNTYYRDSVKGRFTISRDNAKNSLYLQMNSLRAEDTAVYYCASPPQYYEGSIYRLWFAHWGQGTLVTVSS
chain 2: AIQLTQSPSSLSASVGDRVTITCRADESVRTLMHWYQQKPGKAPKLLIYLVSNSEIGVPDRFSGSGSGTDFRLTISSLQPEDFATYYCQQTWSDPWTFGQGTKVEIK

assay: patients with anti-drug antibodies; higher = more immunogenic

Protein	patients with anti-drug antibodies [%]
B1	0
B2	0
B3	2.6
B4	9.5
B5	13
B6	40.7
B7	19.5
B8	0
B9	1.4
B10	2.3
B11	2.5
B12	25.5
B13	2.2
B14	100
B15	0
B16	0
B17	0.3
B18	35.5
B19	12.8
